Test results published in US5808025.

Key:
[1] = target: chimeric selectin L2P (human) (UniProt P16109)
[2] = target: chimeric selectin L2P3L (human) (UniProt P16109)

- lymphocytes bound/HEV (lymphocytes bound/HEV) (L-selectin (human)): 0.05
- lymphocytes bound/HEV (lymphocytes bound/HEV) [1]: 0.074
- lymphocytes bound/HEV (lymphocytes bound/HEV) [2]: 0.08
Substance: LAM1-3 mAb (antibody)
